Data taken from US20210024646A1 (FUDAN UNIVERSITY, published 2021).
Positions count from the first letter of the chain named.

T1: CD73 on the surface of human tumor cells (human, UniProt P21589 27-549)
T1 construct: whole, on cells; One entry for endogenous CD73 on all cell lines; the cell line is named under assay or readout; also called CD73 receptors on the surface of tumor cells; tumor cell CD73
T1 sequence (looked up): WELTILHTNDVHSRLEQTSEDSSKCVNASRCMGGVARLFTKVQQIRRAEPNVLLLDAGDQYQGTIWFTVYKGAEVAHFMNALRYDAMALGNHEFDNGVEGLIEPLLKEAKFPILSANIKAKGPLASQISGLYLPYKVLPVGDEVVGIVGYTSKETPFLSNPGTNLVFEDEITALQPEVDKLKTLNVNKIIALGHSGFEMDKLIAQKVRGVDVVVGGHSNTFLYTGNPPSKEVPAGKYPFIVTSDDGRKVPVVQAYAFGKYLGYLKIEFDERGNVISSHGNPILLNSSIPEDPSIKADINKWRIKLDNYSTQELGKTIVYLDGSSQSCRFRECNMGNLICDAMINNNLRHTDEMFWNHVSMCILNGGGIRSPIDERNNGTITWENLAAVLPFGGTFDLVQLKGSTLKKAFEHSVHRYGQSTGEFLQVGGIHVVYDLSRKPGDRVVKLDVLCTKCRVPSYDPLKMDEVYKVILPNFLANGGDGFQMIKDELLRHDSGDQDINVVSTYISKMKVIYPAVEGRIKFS

T2: extracellular domain of human CD73 protein (CD73-ECD), C-terminus polyhistidine-tagged (human, UniProt P21589 27-547)
T2 sequence: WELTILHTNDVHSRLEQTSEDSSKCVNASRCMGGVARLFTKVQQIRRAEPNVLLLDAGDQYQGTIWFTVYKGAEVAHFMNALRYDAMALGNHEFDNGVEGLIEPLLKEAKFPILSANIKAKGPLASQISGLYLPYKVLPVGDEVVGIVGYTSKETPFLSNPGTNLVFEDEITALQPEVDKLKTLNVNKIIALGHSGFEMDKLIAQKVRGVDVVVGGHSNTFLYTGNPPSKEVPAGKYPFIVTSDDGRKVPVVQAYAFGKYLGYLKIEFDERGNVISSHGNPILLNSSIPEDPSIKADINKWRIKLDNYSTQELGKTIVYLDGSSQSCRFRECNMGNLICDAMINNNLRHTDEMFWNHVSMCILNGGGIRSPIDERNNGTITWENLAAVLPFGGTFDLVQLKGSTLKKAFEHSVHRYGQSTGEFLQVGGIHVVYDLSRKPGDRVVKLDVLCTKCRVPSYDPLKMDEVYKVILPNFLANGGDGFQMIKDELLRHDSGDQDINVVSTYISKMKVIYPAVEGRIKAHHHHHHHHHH

B1: mAb002c (antibody, V domains shown)
VH: QVQLQQPGAELVKPGASVRLSCKASGYTLTSYWMHWVKKRPGQGLEWIGEINPSNGRSNYNEKFKSKATLTVDRSSSTVYMQLGSLTSEDSAVYYCARRGVSGNYFDYWGQGTTLTVSS
VL: DIKMTQSPSSMYASLGERVTMTCKASQDINTYLSWFQQKPGKSPKTLIYRSNILVDGVPSRFSGSRSGQDYYLTITSLEYEDMGIYYCLQYDEFPYTFGGGTKLELK
notes: also called human-mouse chimeric antibody mAb002c
B2: mAb002 (antibody, IgG1, V domains shown)
VH: B1 VH
VL: B1 VL
B3: Hu001c-14 (antibody, V domains shown)
VH: QVQLVQSGAEVKKPGASVKVSCKTSGYTFTNYYIYWVRQAPGQRLEWMGWIYPGNLNIKYNEKFKGRVTITADTSASTAYMELSSLRSEDTAVYYCARDDNYAWFAYWGQGTLVTVSS
VL: DIQMTQSPSSLSASVGDRVTITCKASQDVSTAVAWYQQKPGKAPKLLIYWTNTRHTGVPSRFSGSGSGTDHTLTISSLQPEDFATYYCQQHYSTPFTFGQGTKLEIK
notes: Humanized
B4: Hu001c-15 (antibody, V domains shown)
VH: B3 VH
VL: B3 VL with A43S
notes: Humanized
B5: mAb004c (antibody, V domains shown)
VH: EVQLQQSGPELVKPGASVKIPCKASGYTFTDYNMDWVKQSHGKSLEWIGDINPNNGGSVYNQKFKGKATLTVDKSSSTAYMELRSLTSEDTAVYYCGRITGTGYWSFDVWGTGTTVTVSP
VL: DIQMTQSPASLSVSVGETVTITCRASENIYSNLAWYQQKQGKSPQLLVYGATNLAEGVPSRFSGSGLGTQYSLKISSLQSEDFGSYYCQHFWGIPWTFGGGTKLEIK
notes: also called human-mouse chimeric antibody mAb004c
B6: mAb004 (antibody, IgG2b, V domains shown)
VH: B5 VH
VL: B5 VL
B7: mAb001c (antibody, V domains shown)
VH: QVQLQQSGPELVKPGASVRISCKTSGYTFTNYYIYWVKQRPGQGLEWIGWIYPGNLNIKYNEKFKGKSTLTADKSSSTAFMQLSSLTSEDSAVYFCARDDNYAWFAYWGQGTLVTVSS
VL: DIVMTQSHKFMSTSIGDRVSITCKASQDVSTAVAWYQQKPGQSPKLLIYWTNTRHTGVPDRFTGNTSGTEHTLTISSVQAEDLALYYCQQHYSTPFTFGSGTTLEIK
notes: also called human-mouse chimeric antibody mAb001c
B8: mAb001 (antibody, IgG1, V domains shown)
VH: B7 VH
VL: B7 VL

Columns and labels:
[1] = target: T1, CD73 on the surface of human tumor cells; assay: FACS, NCI-H1299 cells
Description: Alternatively, 100 μL of mAb001c, mAb002c, mAb004c diluted in a 3-fold gradient from 100 nM to 0.046 nM were used as primary antibodies and mixed with 1×10⁵ NCI-H1299 cells suspended in 100 μL RPMI-1640 serum-free medium. Then the obtained solutions were incubated at 4° C. for 1 h, the cells were washed twice with PBS to remove unbound primary antibody, and the target cells were incubated with 200 μL PE-labeled secondary antibody (2 μg/mL) at 4° C. for 30 min. The cells were washed twice with PBS to remove unbound secondary antibody. Finally, the cells were resuspended in 200 μL PBS, and the binding affinities of the test antibodies to CD73 on the cell surface were determined by a flow cytometer.
With reference to the methods in Examples 4-8, the ELISA affinity to CD73-ECD protein, the inhibitory activity on recombinant human CD73 enzyme, the binding affinity to tumor cells, and the inhibitory activity on CD73 enzyme of tumor cells of the above prepared MEDI9447-κ as well as the antibodies mAb001c and mAb002c were detected.

[2] = target: T1, CD73 on the surface of human tumor cells; assay: flow cytometry, NCI-H1299 cells
[3] = target: T1, CD73 on the surface of human tumor cells; assay: FACS, 5 µg/mL antibody, CD73-high Calu-1 against CD73-low MDA-MB-453 cells
Description: 3×10⁵ tumor cells were mixed well with the antibody (final concentration was 5 μg/mL), and then incubated at 4° C. for 1 h. The cells were washed twice with PBS to remove the unbound primary antibody. Then the target cells were incubated with PE-labeled secondary antibody at 4° C. for 30 minutes. The cells were washed twice with PBS to remove the unbound secondary antibody. Finally, the cells were resuspended in 200 μL PBS and the binding rate was detected with a Fluorescence Activated Cell Sorter (FACS).
The chimeric antibody could specifically recognize and bind tumor cells with CD73 high expression.

[4] = target: T2, extracellular domain of human CD73 …; assay: cell-based or functional assay
[5] = target: T1, CD73 on the surface of human tumor cells; assay: cell-based or functional assay
[6] = target: T2, extracellular domain of human CD73 …; assay: ELISA, coated CD73-ECD
[7] = target: T1, CD73 on the surface of human tumor cells; assay: FACS, MDA-MB-231 cells
[8] = target: T1, CD73 on the surface of human tumor cells; assay: flow cytometry, MDA-MB-231 cells
[9] = target: T1, CD73 on the surface of human tumor cells; assay: FACS, purified antibody serial dilution, MDA-MB-231 cells
[10] = target: T1, CD73 on the surface of human tumor cells; assay: confocal microscopy, 5 µg/mL antibody, MDA-MB-231 cells
Description: The antibodies (5 μg/mL) were incubated with the cells at 4° C. for 1 hour, or at 37° C. for 4 hours, and then placed under a laser scanning confocal microscope to observe the results.
MDA-MB-231 cells of 50% density were spread in a laser confocal culture dish, cultured at 37° C. for 16 hours, and then 5 μg/mL CD73 antibody was added. The cells were incubated at 37° C. for 4 hours or 4° C. for 1 hour, washed three times with PBS to remove the antibodies unbound to the cells, and immobilized with 4% paraformaldehyde at room temperature for 30 minutes. The cells were washed three times with PBS and permeabilized with 0.4% Triton X-100 for 10 minutes. The cells were washed three times with PBS, the Lamp-2 (rabbit anti-human) antibody was added and incubated at 37° C. for 1 hour to mark the position of cell lysosome. The unbound antibodies were washed off with PBS, and R-PE-labeled goat anti-human and Alexa Fluor 488-labeled donkey anti-rabbit secondary antibodies were added and incubated at 37° C. for 30 min.

[11] = target: T1, CD73 on the surface of human tumor cells; assay: cell-based or functional assay; remark: listed apart in the source

| Binder | EC50 [2] [nM] | difference in binding rate (MFI), Calu-1 against MDA-MB-453 [3] [times] | IC50, inhibition of AMP hydrolysis by recombinant human CD73 (CellTiter-Glo) [4] [nM] | EC50 [6] [nM] | EC50 [8] [nM] | EC50 [9] [nM] | further results |
| --- | --- | --- | --- | --- | --- | --- | --- |
| B1 | 0.39 | 978 | 0.031 | 0.016 | 0.36 |  | EC50 [1]: 0.391 nM; Calu-1 CD73 Enzyme Inhibition IC50 [5]: 0.281 nM; MDA-MB-231 CD73 Enzyme Inhibition IC50 [5]: 0.791 nM; NCI-H1299 CD73 Enzyme Inhibition IC50 [5]: 0.191 nM; EC50 [7]: 0.356 nM |
| B2 |  |  |  |  |  | 0.65 |  |
| B3 |  |  |  |  |  |  | binding result [6]: binds; binding result [10]: binds |
| B4 |  |  |  |  |  |  | binding result [6]: binds; binding result [10]: binds |
| B5 | 2.2 | 856 | 0.039 | 0.038 | 2.5 |  | IC50, inhibition of CD73 enzyme on Calu-1 cells (AMP hydrolysis) [11]: 0.63 nM; IC50, inhibition of CD73 enzyme on MDA-MB-231 cells (AMP hydrolysis) [11]: 4.16 nM; IC50, inhibition of CD73 enzyme on NCI-H1299 cells (AMP hydrolysis) [11]: 0.385 nM |
| B6 |  |  |  |  |  | 4.69 |  |
| B7 | 1 | 250 | 0.025 | 0.024 | 0.7 |  | EC50 [1]: 1.03 nM; Calu-1 CD73 Enzyme Inhibition IC50 [5]: 0.506 nM; MDA-MB-231 CD73 Enzyme Inhibition IC50 [5]: 1.86 nM; NCI-H1299 CD73 Enzyme Inhibition IC50 [5]: 0.236 nM; EC50 [7]: 0.712 nM |
| B8 |  |  |  |  |  | 1.24 |  |
